Here are results for 14 molecules from PMC9788556, “Nanobodies against Pfs230 block Plasmodium falciparum transmission” (Biochemical Journal, 2022).

As usually defined, the stoichiometry N is the number of molecules, sites or subunits per partner or assembly. Broadly, the Kd is the equilibrium constant for the complex coming apart. High values mean lower affinity, low ones higher affinity.

Substitutions are numbered along the chain they refer to.

First the molecules themselves.
B1: nanobody F5 (VHH)
VHH: QVQLQESGGGLVQPGGSLRLSCAASGFTLDRYAIGWFRQAPGKEREGVSCISSSDGSTYYADSVKGRFTISRDNAKNTVYLQMNSLKPEDTAVYYCARDHGPCTVLADILYDYGMDYWGKGTQVTVSS
notes: From a phage display library (pMES4) of an alpaca immunized with Pfs230 D1D2; also called anti-Pfs230 F5; source: E. coli WK6, periplasmic extract, purified (HisTrap)
B2: nanobody F10 (VHH)
VHH: QVQLQESGGGLVQAGGSLRLSCAASGRTFSDYFMGWFRQAPGKEREFVAAVSWSGGSTYYADSVKGRFTISRDNAKNTVFLQMNSLKPEDTAVYYCAGGGSYYPMSPYDGMDYWGKGTQVTVSS
notes: From a phage display library (pMES4) of an alpaca immunized with Pfs230 D1D2; also called anti-Pfs230 F10; source: E. coli WK6, periplasmic extract, purified (HisTrap)
B3: nanobody D6 (VHH)
VHH: B2 VHH with G16D, D31S, V51I, A75V, F80Y, K87E, T91A, Y108R, D109N
notes: From a phage display library (pMES4) of an alpaca immunized with Pfs230 D1D2; source: E. coli WK6, periplasmic extract, purified (HisTrap)
B4: nanobody A11 (VHH)
VHH: QVQLQESGGGLVQPGESLRLSCAASGRTSSSYAMGWFRQAPGKEREFVASISWSGGSTYYADSVKGRFTLSRDNAKNTVYLQMNSLKPEDTAVYYCAADGIFYSDYPLSVDDFHSWGQGTQVTVSS
notes: as for B3
B5: nanobody G2 (VHH)
VHH: QVQLQESGGGLVQAGGSLRLSCAASGRTFSNYFMGWFRQAPGKEREFVAAVSWSGGSTYYADSVKGRLTISRDNAKNTVYLQMNSLKPEDTAVYYCAAGERYFPMEPRRGYDYWGQGTQVTVSS
notes: as for B3
B6: nanobody G5 (VHH)
VHH: QVQLQESGGGLVQAGGSLRLSCAASGRTFNDYAMYWFRQAPGKEREFVADITWSGSSTYYADSVKGRFTISRDNAKNTVFLQMNSLKPEDTALYYCAADSRYYGIGIGTPRYWGQGTQVTVSS
notes: as for B3
B7: nanobody A10 (VHH)
VHH: QVQLQESGGGLVQAGSSLRLSCAASGGTFSNYAMGWFRQAPGKEREFVAAIGWSGGTYYTDSVEGRFTISRDNAKNTVYLQMNSLKPEDTAVYYCAAKRSGSSWSERGYDYWGQGTQVTVSS
notes: as for B3
B8: nanobody E1 (VHH)
VHH: QVQLQESGGGLVQPGGSLRLSCAASGRTFSSYFMGWFRQAPGKGRVFVASISWSGGSTYYADSVKGRFTISRDNAENTVYLQMNSLKPEDTAVYYCAAGTRATPLDWASGMDYWGKGTQVTVSS
notes: as for B3
B9: nanobody B4 (VHH)
VHH: QVQLQESGGGLVQPGGSLRLSCAASGFTLDYYGIGWFRQAPGKEREGVSCISSSDGSTYYADSVKGRFTISRDNAKNTVYLQMNSLKPEDTAVYYCAADLTGIGCTTAQAMGVIGDFGDFGSWGQGTQVTVSS
notes: as for B3
B10: nanobody E11 (VHH)
VHH: B9 VHH with L29S, S49A, F68S, T101S, G112D
notes: as for B3
B11: nanobody D11 (VHH)
VHH: B7 VHH with G27R, N31S, K75E, R99A
notes: as for B3
B12: nanobody D1 (VHH)
VHH: QVQLQESGGGLVQAGDSLRLSCTASGRTFSNHAMGWFRQAPGKEREIVAVIFGTGRNSWYVDSVKGRFTISRDNAKNTVALQMNRLKPEDTAVYYCASGRTWYSGSSMAEYDYWGQGTQVTVSS
notes: Not to be confused with the D1 domain of Pfs230; From a phage display library (pMES4) of an alpaca immunized with Pfs230 D1D2; also called D1 (nanobody); source: E. coli WK6, periplasmic extract, purified (HisTrap)
B13: Pfs230 D1D2 (aa 587–889) (domain or fragment, Plasmodium falciparum, UniProt P68874 587-889, looked up)
chain: TNKEYVCDFTDQLKPTESGPKVKKCEVKVNEPLIKVKIICPLKGSVEKLYDNIEYVPKKSPYVVLTKEETKLKEKLLSKLIYGLLISPTVNEKENNFKEGVIEFTLPPVVHKATVFYFICDNSKTEDDNKKGNRGIVEVYVEPYGNKINGCAFLDEDEEEEKYGNQIEEDEHNEKIKMKTFFTQNIYKKNNIYPCYMKLYSGDIGGILFPKNIKSTTCFEEMIPYNKEIKWNKENKSLGNLVNNSVVYNKEMNAKYFNVQYVHIPTSYKDTLNLFCSIILKEEESNLISTSYLVYVSINEELN
notes: used untagged; also called first two 6-cys domains of Pfs230; source: Sf21 insect cells (baculovirus), secreted, purified (Ni-NTA, TEV cleavage, SEC); not shown: His8, N-terminal, cleaved
B14: Pfs230 Pro-D1D2 (aa 532–889) (domain or fragment, Plasmodium falciparum, UniProt P68874 532-889, looked up)
chain: DGENVIKIIRSVLQSGALPSVGVDELDKIDLSYETTESGDTAVSEDSYDKYASNNTNKEYVCDFTDQLKPTESGPKVKKCEVKVNEPLIKVKIICPLKGSVEKLYDNIEYVPKKSPYVVLTKEETKLKEKLLSKLIYGLLISPTVNEKENNFKEGVIEFTLPPVVHKATVFYFICDNSKTEDDNKKGNRGIVEVYVEPYGNKINGCAFLDEDEEEEKYGNQIEEDEHNEKIKMKTFFTQNIYKKNNIYPCYMKLYSGDIGGILFPKNIKSTTCFEEMIPYNKEIKWNKENKSLGNLVNNSVVYNKEMNAKYFNVQYVHIPTSYKDTLNLFCSIILKEEESNLISTSYLVYVSINEELN
notes: Pfs230 of Plasmodium falciparum (PF3D7_0209000), amino acids 532-889: a part of the prodomain and 6-cys domains D1 and D2; used untagged; source: Sf21 insect cells (baculovirus), secreted, purified (Ni-NTA, TEV cleavage, SEC); not shown: His8, N-terminal, cleaved

The target of the first assay is B14. As to the kind of experiment: SEC; size shift assay: Pfs230 Pro-D1D2 or Pfs230 D1D2 incubated with nanobodies or LMIV230-01 at different molar ratios for 1 h on ice; SD200 3.2/300 column, 20 mM HEPES pH 7.5, 150 mM NaCl. As to conditions: both partners purified. Background: SEC sorts molecules by how far they enter the pores of the column.
For B1, the “stoichiometry N” value was 1.
For the molecule B2, the “stoichiometry N” value turned out to be 1.

The next assay has as its target B13. As to the kind of experiment: far-Western, overlay or dot blot; western blot: 250 ng untagged Pfs230 D1D2 separated on a 4–12% Bis-Tris gel in reducing conditions, on PVDF, probed with 0.5 µg/ml nanobody overnight at 4°C. Particulars: both partners purified. (In general: In western blotting, separated proteins are transferred to a membrane and probed.)
B3: the binding result was “binds”.
The same measure, in the same setting: the result for B4 reads “binds”.

A further assay has as its target B13. Briefly: far-Western, overlay or dot blot; western blot: 250 ng untagged Pfs230 D1D2 separated on a 4–12% Bis-Tris gel in non-reducing conditions, on PVDF, probed with 0.5 µg/ml nanobody overnight at 4°C. As to conditions: both partners purified.
As to B5, the binding result is “binds”.
For B6, the binding result is listed as “binds”.
Take B7: the binding result was “binds”.

The target of a further assay is B13. Briefly: BLI; Octet RED96e; monomeric nanobodies (5 µg/ml) on Ni-NTA sensor tips; untagged Pfs230 D1D2 6 to 200 nM or untagged Pfs230 D1 0.8 to 100 nM; PBS pH 7.4, 0.1% BSA, 0.05% TWEEN-20, 25°C; global 1 : 1 fit. As to conditions: both partners purified.
As to B8, the binding result was “binds”.
Take B9: the binding result is given as “binds”.
In the case of B10, the binding result is “binds”.
Take B11: the binding result is “binds”.

A further assay addresses T1, Pfs230 D1 (aa 587–731) (Plasmodium falciparum 3D7, UniProt P68874).
T1 construct: used untagged; also called first 6-cys domain of Pfs230; source: Sf21 insect cells (baculovirus), secreted, purified (Ni-NTA, TEV cleavage, SEC); not shown: His8, N-terminal, cleaved
The description is as above. Particulars: both partners purified.
For the molecule B5, the binding result is “binds”.
With B8, the binding result is on record as “binds”.
In the case of B12, the binding result was “binds”.
The same measure, in the same setting: as for B3, the entry is “binds”.
B9: the binding result was “binds”.
On to B10, for which the binding result was “binds”.
On the same count and under the same terms, as for B4, the entry is “binds”.
On to B6, for which the binding result was “binds”.
On the same count and under the same terms, as for B7, the entry is “binds”; as for B11, “binds”.

A further assay deals with T2, F5-Fc (alpaca).
T2 construct: as the VHH of m13 (nanobody F5); also called F5 nanobody-Fc fusion; source: HEK293, transient transfection, purified from supernatant (HiTrap PrismA, SEC)
As to the kind of experiment: BLI; Octet RED96e; nanobody-Fc or LMIV230-01 (5 µg/ml) on anti-hIgG Fc capture sensor tips; untagged Pfs230 D1D2 or Pfs230 Pro-D1D2 3 to 100 nM or 94–3000 nM; PBS pH 7.4, 0.1% BSA, 0.05% TWEEN-20, 25°C; global 1 : 1 fit. As to conditions: both partners purified. On the technique in general: BLI is a label-free optical method that tracks binding on a fibre tip over time.
In turn, B13 showed a Kd of 0.57 nM.
Take B14: the affinity, expressed as Kd, was 118 nM.

The target in a further assay is T3, F10-Fc (alpaca).
T3 construct: as the VHH of m14 (nanobody F10); also called F10 nanobody-Fc fusion; source: HEK293, transient transfection, purified from supernatant (HiTrap PrismA, SEC)
The assay is described as above. As to conditions: both partners purified.
As for B13, the equilibrium dissociation constant (Kd) came out at 0.13 nM.
